Consider three molecules from article PMC4353692, “Structure of the Vacuolar H^+-ATPase Rotary Motor Reveals New Mechanistic Insights” (Structure(London, England:1993), 2015).

To fix the notation:
T1: Manduca sexta V-ATPase subunit H (Manduca sexta (endogenous in midgut), UniProt Q9U5N0 1-475)
T1 construct: V-type proton ATPase subunit H, Manduca sexta; source: purified from M. sexta midgut, as part of the V-ATPase holoenzyme
T1 sequence (looked up): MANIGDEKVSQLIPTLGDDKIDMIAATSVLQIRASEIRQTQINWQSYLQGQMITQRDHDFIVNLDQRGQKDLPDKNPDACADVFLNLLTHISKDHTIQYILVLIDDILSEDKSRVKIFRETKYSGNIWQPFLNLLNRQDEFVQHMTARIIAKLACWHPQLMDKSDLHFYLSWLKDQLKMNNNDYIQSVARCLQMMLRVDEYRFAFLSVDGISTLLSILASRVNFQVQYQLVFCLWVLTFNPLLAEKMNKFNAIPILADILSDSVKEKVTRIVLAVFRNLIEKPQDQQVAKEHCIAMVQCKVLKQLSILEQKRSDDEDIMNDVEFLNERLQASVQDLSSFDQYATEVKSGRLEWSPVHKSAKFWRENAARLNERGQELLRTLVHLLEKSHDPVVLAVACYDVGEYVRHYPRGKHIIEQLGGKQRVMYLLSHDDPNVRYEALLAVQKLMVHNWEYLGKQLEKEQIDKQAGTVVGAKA

B1: Manduca sexta V-ATPase subunit D (natural protein)
chain: not shown
notes: V-type proton ATPase subunit D, Manduca sexta; also called rotor axle; central axle; source: purified from M. sexta midgut, as part of the V-ATPase holoenzyme
B2: Manduca sexta V-ATPase subunit E (natural protein, Manduca sexta (endogenous in midgut), UniProt P31402 1-226, looked up)
chain: MALSDADVQKQIKHMMAFIEQEANEKAEEIDAKAEEEFNIEKGRLVQQQRLKIMEYYEKKEKQVELQKKIQSSNMLNQARLKVLKVREDHVRNVLDEARKRLAEVPKDIKLYSDLLVTLIVQALFQLVEPTVTLRVRQADKALVESLLGRAQQDYKAKIKKDVVLKIDNENFLPPDTCGGIELIAAKGRIKISNTLESRLELIAQQLLPEIRNALFGRNPNRKFTD
notes: V-type proton ATPase subunit E, Manduca sexta; Three copies in the holoenzyme (stator filaments S1, S2, S3); also called part of the EG stator filaments S1-S3; source: purified from M. sexta midgut, as part of the V-ATPase holoenzyme
B3: Manduca sexta V-ATPase subunit G (natural protein, Manduca sexta (endogenous in midgut), UniProt Q25532 1-117, looked up)
chain: MASQTHGIQQLLAAEKRAAEKVSEARKRKAKRLKQAKEEAQDEVEKYRQERERQFKEFEAKHMGTREGVAAKIDAETRIKIDEMNKMVQTQKEAVIKDVLNLVYDIKPELHINYRVV
notes: V-type proton ATPase subunit G, Manduca sexta; Three copies in the holoenzyme (stator filaments S1, S2, S3); also called part of the EG stator filaments S1-S3; source: purified from M. sexta midgut, as part of the V-ATPase holoenzyme

Common to all, as to test: cryo-EM structure; M. sexta V-ATPase holoenzyme purified from tissue, in C12E10; 9.4 Å reconstruction (gold standard FSC 0.143); homology models of the subunits flexibly fitted by MDFF; side chains not resolved
What all share (settings): both partners purified

Assay [1] concerns the target T2, Manduca sexta V-ATPase subunit A (Manduca sexta (endogenous in midgut), UniProt P31400 1-617).
T2 construct: V-type proton ATPase catalytic subunit A, Manduca sexta; Three copies in the holoenzyme, (AB)3; source: purified from M. sexta midgut, as part of the V-ATPase holoenzyme

For assay [2], the target named is T3, Manduca sexta V-ATPase subunit B (Manduca sexta (endogenous in midgut), UniProt P31401 1-494).
T3 construct: V-type proton ATPase subunit B, Manduca sexta; Three copies in the holoenzyme, (AB)3; source: purified from M. sexta midgut, as part of the V-ATPase holoenzyme
T3 sequence (P31401 whole entry): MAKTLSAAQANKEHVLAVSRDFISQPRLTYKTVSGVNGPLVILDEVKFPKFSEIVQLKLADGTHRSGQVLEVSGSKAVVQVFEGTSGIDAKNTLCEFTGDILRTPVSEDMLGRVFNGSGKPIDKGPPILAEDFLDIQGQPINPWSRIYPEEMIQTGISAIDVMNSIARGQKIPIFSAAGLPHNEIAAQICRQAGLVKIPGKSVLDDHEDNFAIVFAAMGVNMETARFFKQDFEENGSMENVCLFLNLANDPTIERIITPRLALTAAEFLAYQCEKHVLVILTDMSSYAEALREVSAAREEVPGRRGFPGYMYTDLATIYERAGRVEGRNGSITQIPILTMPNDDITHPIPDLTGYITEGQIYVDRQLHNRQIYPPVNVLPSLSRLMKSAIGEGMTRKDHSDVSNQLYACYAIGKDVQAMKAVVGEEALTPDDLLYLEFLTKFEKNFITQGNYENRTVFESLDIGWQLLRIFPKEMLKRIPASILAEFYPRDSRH

Assay [3] has as its target T4, Manduca sexta V-ATPase subunit C (Manduca sexta (endogenous in midgut), UniProt Q9U5N1 1-385).
T4 construct: V-type proton ATPase subunit C, Manduca sexta; source: purified from M. sexta midgut, as part of the V-ATPase holoenzyme

Assay [4] has as its target T1, Manduca sexta V-ATPase subunit H.
For assay [5], the target named is B2.

T4 sequence (Q9U5N1 whole entry): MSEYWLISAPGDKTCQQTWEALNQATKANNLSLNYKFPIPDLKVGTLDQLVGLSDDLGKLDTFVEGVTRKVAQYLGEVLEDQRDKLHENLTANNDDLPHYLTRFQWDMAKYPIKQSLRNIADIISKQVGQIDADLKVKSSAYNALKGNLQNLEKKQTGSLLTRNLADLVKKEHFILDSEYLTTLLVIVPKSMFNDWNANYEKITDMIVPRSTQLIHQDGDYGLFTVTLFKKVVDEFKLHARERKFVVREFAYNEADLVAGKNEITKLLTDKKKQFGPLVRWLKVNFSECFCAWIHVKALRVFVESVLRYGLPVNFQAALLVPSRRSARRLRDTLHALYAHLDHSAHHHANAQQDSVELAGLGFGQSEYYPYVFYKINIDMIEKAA
T2 sequence (P31400 whole entry): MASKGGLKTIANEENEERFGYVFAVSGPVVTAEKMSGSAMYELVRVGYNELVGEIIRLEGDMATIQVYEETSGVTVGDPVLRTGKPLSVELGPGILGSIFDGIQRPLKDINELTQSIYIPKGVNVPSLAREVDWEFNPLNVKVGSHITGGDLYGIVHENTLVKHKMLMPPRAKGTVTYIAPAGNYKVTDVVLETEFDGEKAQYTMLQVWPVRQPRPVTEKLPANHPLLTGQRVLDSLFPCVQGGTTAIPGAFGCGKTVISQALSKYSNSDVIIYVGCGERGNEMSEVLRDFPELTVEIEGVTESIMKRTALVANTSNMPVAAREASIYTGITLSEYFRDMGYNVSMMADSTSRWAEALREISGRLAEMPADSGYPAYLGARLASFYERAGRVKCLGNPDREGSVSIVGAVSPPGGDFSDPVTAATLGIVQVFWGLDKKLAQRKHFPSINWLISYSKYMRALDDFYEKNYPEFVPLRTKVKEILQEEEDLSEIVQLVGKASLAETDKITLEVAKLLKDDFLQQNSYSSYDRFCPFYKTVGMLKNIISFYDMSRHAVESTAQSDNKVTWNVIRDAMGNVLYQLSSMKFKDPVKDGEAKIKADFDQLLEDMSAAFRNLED

With B1, the binding result in assay [1] and in assay [2] was “binds” each time.
On to B2, for which the binding result in assay [3] and in assay [4] was “binds” in each case.
Turning to B3, the binding result in assay [3], in assay [5] and in assay [4] was “binds” each time.
